According to patent publication EP4596582A1 (Sichuan Kelun-Biotech Biopharmaceutical Co., Ltd., dated 2025):
Read-outs that look alike come from different tables or passages of the source.

T1: monkey B7-H3-4Ig-His protein (monkey)
T1 chain: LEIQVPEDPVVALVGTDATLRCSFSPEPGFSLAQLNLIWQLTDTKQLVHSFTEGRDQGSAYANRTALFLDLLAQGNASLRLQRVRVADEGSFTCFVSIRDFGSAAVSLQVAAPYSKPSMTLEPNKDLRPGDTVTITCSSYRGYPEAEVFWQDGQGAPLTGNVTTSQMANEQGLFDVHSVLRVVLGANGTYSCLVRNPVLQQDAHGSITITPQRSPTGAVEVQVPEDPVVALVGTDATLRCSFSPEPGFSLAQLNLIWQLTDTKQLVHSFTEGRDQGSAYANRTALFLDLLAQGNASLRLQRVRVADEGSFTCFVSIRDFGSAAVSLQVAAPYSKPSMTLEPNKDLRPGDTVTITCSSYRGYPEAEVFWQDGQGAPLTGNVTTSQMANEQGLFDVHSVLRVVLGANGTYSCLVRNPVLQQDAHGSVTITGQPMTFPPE

T2: human B7-H3-4Ig-His protein (human, UniProt Q5ZPR3 29-466)
T2 construct: extracellular domain; Made in HEK293-EBNA cells
T2 sequence: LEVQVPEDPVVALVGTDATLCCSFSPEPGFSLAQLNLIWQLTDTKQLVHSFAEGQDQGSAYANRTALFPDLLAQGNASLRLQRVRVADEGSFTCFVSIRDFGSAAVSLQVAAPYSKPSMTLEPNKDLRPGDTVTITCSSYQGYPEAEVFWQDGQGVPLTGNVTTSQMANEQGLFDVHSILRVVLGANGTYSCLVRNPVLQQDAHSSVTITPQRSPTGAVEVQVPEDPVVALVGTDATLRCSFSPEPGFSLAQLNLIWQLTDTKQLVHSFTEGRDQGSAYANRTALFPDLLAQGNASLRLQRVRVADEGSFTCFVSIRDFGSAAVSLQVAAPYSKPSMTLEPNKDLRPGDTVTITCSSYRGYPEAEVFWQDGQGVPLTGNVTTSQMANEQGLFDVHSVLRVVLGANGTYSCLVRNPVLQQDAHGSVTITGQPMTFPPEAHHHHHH

T3: human B7-H3 on human tumor cells (MCF-7, HT29, NCI-N87, HCC1806, HCC827) (human, UniProt Q5ZPR3 29-534)
T3 construct: whole, on cells
T3 sequence (looked up): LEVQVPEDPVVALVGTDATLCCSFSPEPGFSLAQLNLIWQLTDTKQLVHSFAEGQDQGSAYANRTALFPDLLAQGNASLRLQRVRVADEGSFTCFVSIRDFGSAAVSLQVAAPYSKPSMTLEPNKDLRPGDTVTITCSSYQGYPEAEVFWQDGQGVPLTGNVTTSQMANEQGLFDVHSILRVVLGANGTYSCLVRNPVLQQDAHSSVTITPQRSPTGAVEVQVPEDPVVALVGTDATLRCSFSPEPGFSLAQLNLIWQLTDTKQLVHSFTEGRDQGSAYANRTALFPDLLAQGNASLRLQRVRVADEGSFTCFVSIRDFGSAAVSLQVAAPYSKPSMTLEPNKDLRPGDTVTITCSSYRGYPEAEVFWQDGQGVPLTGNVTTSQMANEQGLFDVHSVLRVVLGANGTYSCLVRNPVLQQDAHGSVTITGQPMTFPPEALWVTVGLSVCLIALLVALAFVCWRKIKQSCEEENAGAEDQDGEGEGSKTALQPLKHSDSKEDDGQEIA


Columns and labels:
[1] = biological target: T1, monkey B7-H3-4Ig-His protein; experiment: ELISA, antigen coated at 1 ug/ml
[2] = biological target: T2, human B7-H3-4Ig-His protein; experiment: ELISA, antigen coated at 1 ug/ml
[3] = biological target: T3, human B7-H3 on human tumor cells …; experiment: flow cytometry on MCF-7 cells
[4] = biological target: T1, monkey B7-H3-4Ig-His protein; experiment: ELISA, antigen coated at 1 ug/ml
[5] = biological target: T2, human B7-H3-4Ig-His protein; experiment: ELISA, antigen coated at 1 ug/ml; remark: listed apart in the source

Binder	EC50 [1] [µg/mL]	EC50 [2] [µg/mL]	EC50 [3] [µg/mL]	EC50 [4] [µg/mL]	EC50 [5] [µg/mL]
anti-human-B7-H3 chimeric antibody 20G11G6 (antibody, V domains shown, Purified from hybridoma of H2L2 transgenic mice: human variable regions with constant regions of rat origin) VH: QVQLQESGPGLVKPSGTLSLTCAVSGGSNSSSNWWTWVRQSPGKGLEWIGEISPTGFTSYSPSLKSRVTISVDKSKTQFSLNLSSVTAADTAVYYCARDRLYFDFWGQGTLVTVSS VL: not shown	0.0213	0.0165	0.228	–	–
anti-human-B7-H3 human antibody 2# (antibody, human IgG1, kappa, V domains shown, also called 20G11G6/2#) VH: QVQLQESGPGLVKPSGTLSLTCAVSGGSNSSSNWWTWVRQSPGKGLEWIGEISPTGFTSYSPSLKSRVTISVDKSKTQFSLNLSSVTAADTAVYYCARDRLYFDFWGQGTLVTVSS VL: not shown	–	–	–	0.00394	0.00297
